From US20170137533A1 (published 2017)

Key:
Assay in all cases: ForteBio
SC16.39 = target: SC16.39
SC16.51 = target: SC16.51
SC16.46 = target: SC16.46
SC16.46, sequence (Q9NYJ7 27-492): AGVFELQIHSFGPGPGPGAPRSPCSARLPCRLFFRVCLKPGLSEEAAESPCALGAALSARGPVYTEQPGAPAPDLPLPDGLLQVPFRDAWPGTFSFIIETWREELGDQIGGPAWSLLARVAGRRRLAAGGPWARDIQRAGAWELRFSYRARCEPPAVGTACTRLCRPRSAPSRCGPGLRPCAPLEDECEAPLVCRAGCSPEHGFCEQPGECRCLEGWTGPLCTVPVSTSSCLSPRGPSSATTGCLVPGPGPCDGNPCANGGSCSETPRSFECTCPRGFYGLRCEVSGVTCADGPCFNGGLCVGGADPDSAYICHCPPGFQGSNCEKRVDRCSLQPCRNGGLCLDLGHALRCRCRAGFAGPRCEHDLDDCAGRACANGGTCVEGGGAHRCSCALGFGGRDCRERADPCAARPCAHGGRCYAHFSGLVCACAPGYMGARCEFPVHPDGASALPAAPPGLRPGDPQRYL

SC16.51, sequence (Q9NYJ7 27-492): as above
SC16.39, sequence (Q9NYJ7 27-492): as above

B1: DLL3 (ligand)
chain: not shown
Kd (SC16.39): 1 nM | Kd (SC16.51): 2 nM | Kd (SC16.46): 0.5 nM
